Legend:
[1] = biological target: T1, CEACAM3 on transiently transfected HEK293 cells (Homo sapiens (Human), UniProt P40198 35-252); test: flow cytometry on transiently transfected HEK293 cells
T1 sequence: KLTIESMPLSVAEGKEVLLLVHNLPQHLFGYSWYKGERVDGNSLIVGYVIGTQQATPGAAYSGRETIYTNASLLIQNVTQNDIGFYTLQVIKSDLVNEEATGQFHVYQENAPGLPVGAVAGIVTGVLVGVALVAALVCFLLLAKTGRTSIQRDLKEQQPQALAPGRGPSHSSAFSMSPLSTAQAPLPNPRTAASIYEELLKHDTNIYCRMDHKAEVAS
Procedure: (§1) Cell fluorescence was quantified using a flow cytometer (Guava easyCyte™ 8HT, Merck-Millipore, USA). For antigen ELISA, CEACAM1(SEQ ID NO:64) (Cat. No. 10822-H08H, Sino Biological, China), CHIM (SEQ ID NO:63), CEA (SEQ ID NO:55) or CEACAM6 (SEQ ID NO:57) were coated in 96-well plates at a concentration of 10 μg/ml overnight at 4° C.

[2] = biological target: T2, CEACAM7 on transiently transfected HEK293 cells (Homo sapiens (Human), UniProt Q14002 36-242); test: as above
T2 sequence: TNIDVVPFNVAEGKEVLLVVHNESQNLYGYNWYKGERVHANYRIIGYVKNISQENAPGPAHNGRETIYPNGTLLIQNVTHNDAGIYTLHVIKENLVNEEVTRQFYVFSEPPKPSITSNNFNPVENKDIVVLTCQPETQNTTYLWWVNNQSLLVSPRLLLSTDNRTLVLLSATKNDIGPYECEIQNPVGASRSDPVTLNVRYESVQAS
Procedure: as §1

[3] = biological target: T3, CEACAM8 on transiently transfected HEK293 cells (Homo sapiens (Human), UniProt P31997 35-320); test: as above
T3 sequence: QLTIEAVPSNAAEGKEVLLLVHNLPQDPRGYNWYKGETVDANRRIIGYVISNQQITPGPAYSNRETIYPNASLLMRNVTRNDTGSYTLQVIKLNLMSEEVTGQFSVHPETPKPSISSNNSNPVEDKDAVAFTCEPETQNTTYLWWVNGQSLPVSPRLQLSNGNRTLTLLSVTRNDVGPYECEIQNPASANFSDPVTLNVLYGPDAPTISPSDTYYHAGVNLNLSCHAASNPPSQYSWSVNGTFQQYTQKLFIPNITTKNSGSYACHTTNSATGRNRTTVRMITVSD
Procedure: as §1

[4] = biological target: T4, CEACAM1 (Cat. No. 10822-H08H, Sino Biological) (Homo sapiens (Human), UniProt P13688 35-428); test: antigen ELISA, antigen coated at 10 ug/ml, HRP anti-human Fc
T4 construct: Bought protein
T4 sequence: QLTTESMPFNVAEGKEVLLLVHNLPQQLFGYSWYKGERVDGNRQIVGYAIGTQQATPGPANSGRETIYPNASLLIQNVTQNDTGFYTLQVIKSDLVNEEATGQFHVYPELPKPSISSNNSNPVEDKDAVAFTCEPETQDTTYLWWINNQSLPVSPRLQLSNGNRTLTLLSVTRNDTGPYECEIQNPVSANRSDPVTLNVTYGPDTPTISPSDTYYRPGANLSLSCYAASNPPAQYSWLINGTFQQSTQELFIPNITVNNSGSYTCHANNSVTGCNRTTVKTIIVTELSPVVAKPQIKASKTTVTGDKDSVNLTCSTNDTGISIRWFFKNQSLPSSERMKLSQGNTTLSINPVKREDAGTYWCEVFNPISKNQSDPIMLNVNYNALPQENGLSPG
Procedure: as §1

[5] = biological target: T5, cynoCEA (Cat.:CE5-C52H5, Acrobiosystem) (cyno); test: SPR (BIAcore T-200); antibody captured on anti-human IgG chip, antigen flowed (1.37-2150 nM)
T5 chain: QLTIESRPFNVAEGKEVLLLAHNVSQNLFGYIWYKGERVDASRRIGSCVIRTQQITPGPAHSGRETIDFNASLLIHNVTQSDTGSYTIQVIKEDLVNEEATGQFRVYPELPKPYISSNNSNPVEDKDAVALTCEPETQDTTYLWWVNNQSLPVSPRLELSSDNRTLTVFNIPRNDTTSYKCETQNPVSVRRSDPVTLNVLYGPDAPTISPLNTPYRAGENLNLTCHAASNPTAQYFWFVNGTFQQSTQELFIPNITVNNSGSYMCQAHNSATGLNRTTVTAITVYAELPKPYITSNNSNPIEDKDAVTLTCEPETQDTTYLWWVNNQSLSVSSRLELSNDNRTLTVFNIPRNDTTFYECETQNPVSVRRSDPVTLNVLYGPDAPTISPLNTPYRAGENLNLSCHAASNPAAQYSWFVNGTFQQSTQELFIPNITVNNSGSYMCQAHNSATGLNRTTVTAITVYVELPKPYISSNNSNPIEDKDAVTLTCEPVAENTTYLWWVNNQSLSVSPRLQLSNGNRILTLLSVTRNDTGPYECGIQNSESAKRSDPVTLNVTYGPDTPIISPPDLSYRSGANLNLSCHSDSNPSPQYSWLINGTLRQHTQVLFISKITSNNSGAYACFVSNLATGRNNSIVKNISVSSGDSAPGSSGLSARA

B1: BGA5384 (antibody, human IgG1, kappa, V domains shown)
VH: QVQLVQSGAEVKKPGASVKVSCKASGYIFTSYYLHWVRQAPGQGLEWIGYINPQTGKTSYAQKFQGRVTMTRDTSTSTVYMELSSLRSEDTAVYYCAREYGNYNYPLDYWGQGTLVTVSS
VL: DIQMTQSPSSLSASVGDRVTITCRASENQYGYLAWYQQKPGKVPKLLIYNYKNLVEGVPSRFSGSGSGTDFTLTISSLQPEDVATYYCQHHLGTPYTFGQGTKVEIKR
notes: BGA6710 with Y57K in VH; human IgG1 format; also called BGA7592-1K
B1: no binding (tested: 2 µg/ml) [1]; no binding (tested: 2 µg/ml) [2]; no binding (tested: 2 µg/ml) [3]. The binding result [4] was “no binding” and the Kd [5] was 19.9 nM.

Reference: patent US20250115677A1, “Anti-CEA Antibody Drug Conjugates and Methods of Use” (BeiGene Switzerland GmbH, priority 2022, published 2025)
